Source: patent publication US20220378949A1, “NEUROTROPHIN RECEPTOR BINDING CONJUGATE COMPOSITIONS, METHODS OF USE AND METHODS OF MAKING THEREOF” (priority 2019, published 2022)
Blank lines part the entries; values can stand above or below the molecule they belong to.

Key:
[1] = system: superior cervical ganglia (SCG) neurons; assay: Retrograde axonal transport of 800-rhNGF in Xona microfluidic chambers, LI-COR Odyssey imaging; format: cell-based, rat; settings: 30 ng/mL at distal axons, 48 hours
Excerpt: (§1) Increasing conjugation leads to decreased protein conjugate solubility. A construct where the active agent has a greater molecular weight and less hydrophilic Dyomics DY-800 Near InfraRed (NIR) dye was attached directly to recombinant human NGF (rhNGF) (FIG. 2). In subsequent studies, we purified DAR sub-species using a (Waters column) reverse phase HPLC (RP-HPLC). […] Cultures were maintained until the axons extended through the channels in the microfluidic chambers to the side without cells plated. FIG. 2B depicts 800-rhNGF, 30 ng/mL was added to the wells where the terminal (distal) axons had extended. 48 hours after addition of 800-rhNGF to distal ends in left chambers, chambers were imaged on a LI-COR Odyssey scanner. […] FIGS. 2C and 2D depict brightfield images of wells containing cell bodies, showing improved visualization of cell clumps for comparison to images containing 800 NIR cell bodies. Neuronal Survival Confirms TrkB Binding Activity is Intact after Synthetic Manipulation.

[2] = Stability of rhNGF in plasma; format: in vitro ADME; settings: 37° C.
Excerpt: As an example of an intracellularly active small molecule compound (SMC), the glucocorticoid fluocinolone acetonide (FA) was conjugated using a heterobifunctional linker to rhNGF and rhBDNF, both of which constructs exerted analgesic (anti-inflammatory) activity in vivo. Dorsal Root Ganglia (DRG) in diseases of the peripheral nervous system (PNS) play a fundamental role in chronic pain generally. NGF and BDNF localize due to their selectivity for distinct populations of peripheral neurons by binding to TrkA and TrkB expressed largely in nociceptors and proprioceptors, respectively. In treating forms of pain in which the DRG are involved, either NGF and/or BDNF should deliver intracellularly active FA by axonal transport to subpopulations of sensory neuron cell bodies in DRG and via their central synaptic terminals, into the dorsal horn of the spinal cord. Since TrkB is highly expressed in the neurofilament-1-expressing subpopulation of low-threshold mechanosensory neurons in the DRG, peripherally injected BDNF should deliver FA to the DRG. In treating pain, FA may alter neuronal excitability to be released or diffuse, acting on nearby inflammatory cells e.g. microglia, astrocytes, or satellite glia. rhNGF is stable in plasma for up to 4 days at 37° C.

[3] = administered sub-cutaneously (SQ); cited from earlier work
[4] = system: Retinal Ganglion Cells (RGCs); assay: Neuronal survival of primary Retinal Ganglion Cells with labeled rhBDNF (TrkB binding intact); format: cell-based, rat
Experimental: Labeled BDNF test articles, either 800-rhBDNF or FA-rhBDNF, were also assessed to as to whether the compositions would sustain neuronal survival by plating conjugates in Retinal Ganglion Cells (RGCs). RGCs were isolated from P6 rats by sequential immune-panning. Retinas are isolated and enzymatically digested by papain followed by mechanical dissociation into a single-cell suspension. Cells are negatively panned to remove macrophages and other nonspecifically adhering cells and then positively panned for RGCs using the Thy1.1 T11D7 hybridoma supernatant.
as §1
High Performance Liquid Chromatography and mass spectrometry was used to quantify the number of dye molecules attached or crosslinked to rhBDNF (i.e., the ratio of fluorescent dye in the 800 region to rhBDNF).

[5] = system: superior cervical ganglia (SCG) neurons; assay: Neuronal survival assay in primary superior cervical ganglia neurons (compartmented cultures / microfluidic devices); format: cell-based, rat; settings: FIG. 4 and FIG. 1C
Experimental: In vitro systems that use primary neurons express Trk receptors on distal ends were used so that both survival and Trk binding activity may be assessed following synthetic manipulation in producing conjugates.
Confirm Trk receptor binding. […] Receptor binding activity where up to 100× unmodified mNGF is co-administered with the Trk binding agent was determined. […] FIG. 1C: Neurons in compartmented cultures were given approximately 10 ng/mL fNGF (as determined by neuronal survival bioassay), or 10 ng/mL fNGF+100× excess unlabelled NFG (1000 ng/mL) in the distal axon compartments. 24 hours later fluorescence images of the cell bodies were obtained (FIG. 1C). […] Survival. […] SGC neurons were harvested from E-21 Sprague Dawley rat pups.
DAR analytics were calculated using Reverse Phase High Performance Liquid Chromatography (RP-HPLC) and/or mass spectroscopy (MS). […] (FIG. 5)

TrkA receptors = target: T1, TrkA receptors (Rattus norvegicus, UniProt P35739); assay: Uptake and retrograde transport of fluorescent NGF in compartmented cultures of SCG neurons, competition with unlabelled NGF; format: cell-based; settings: for Uptake of fluorescent NGF at distal ends of neurons (TrkA-mediated endocytosis): distal axon compartments, SCG neurons
T1 construct: In vitro systems that use primary neurons express Trk receptors on distal ends were used; endogenous in cells
Experimental: Confirm Trk receptor binding. […] Receptor binding activity where up to 100× unmodified mNGF is co-administered with the Trk binding agent was determined. 488-mNGF (FIG. 1A) is shown in cell bodies, after binding to TrkA, endocytosis and transport to the central chamber of the in vitro system. In FIG. 1B, TrkA was confirmed here by adding 1000 ng/ml unmodified mNGF to compete with 100 ng/ml 488-mNGF for the same TrkA receptors. FIG. 1C: Neurons in compartmented cultures were given approximately 10 ng/mL fNGF (as determined by neuronal survival bioassay), or 10 ng/mL fNGF+100× excess unlabelled NFG (1000 ng/mL) in the distal axon compartments. 24 hours later fluorescence images of the cell bodies were obtained (FIG. 1C). […] Alexa Fluor requirement for DAR<4 per mouse NGF monomer. Fluorescent dye Alexa Fluor 488, which due to its size and hydrophobicity is attached to NGF without using a spacer of any length binds to TrkA, is endocytosed after binding, and is transported retrogradely to the neuronal cell body. In FIG. 4, we show in vitro results for a “mixed DAR” 800-rhNGF of 1.64 which is expressed as an average of 1-4 dye molecules per monomer using standard analytical methods mass spectroscopy (MS) or high performance liquid chromatography (HPLC), in each case where the NT involved is a dimer. […] Survival. […] SGC neurons were harvested from E-21 Sprague Dawley rat pups.

[6] = average ratio of about 3.1 per monomer

T1 sequence (P35739 33-799): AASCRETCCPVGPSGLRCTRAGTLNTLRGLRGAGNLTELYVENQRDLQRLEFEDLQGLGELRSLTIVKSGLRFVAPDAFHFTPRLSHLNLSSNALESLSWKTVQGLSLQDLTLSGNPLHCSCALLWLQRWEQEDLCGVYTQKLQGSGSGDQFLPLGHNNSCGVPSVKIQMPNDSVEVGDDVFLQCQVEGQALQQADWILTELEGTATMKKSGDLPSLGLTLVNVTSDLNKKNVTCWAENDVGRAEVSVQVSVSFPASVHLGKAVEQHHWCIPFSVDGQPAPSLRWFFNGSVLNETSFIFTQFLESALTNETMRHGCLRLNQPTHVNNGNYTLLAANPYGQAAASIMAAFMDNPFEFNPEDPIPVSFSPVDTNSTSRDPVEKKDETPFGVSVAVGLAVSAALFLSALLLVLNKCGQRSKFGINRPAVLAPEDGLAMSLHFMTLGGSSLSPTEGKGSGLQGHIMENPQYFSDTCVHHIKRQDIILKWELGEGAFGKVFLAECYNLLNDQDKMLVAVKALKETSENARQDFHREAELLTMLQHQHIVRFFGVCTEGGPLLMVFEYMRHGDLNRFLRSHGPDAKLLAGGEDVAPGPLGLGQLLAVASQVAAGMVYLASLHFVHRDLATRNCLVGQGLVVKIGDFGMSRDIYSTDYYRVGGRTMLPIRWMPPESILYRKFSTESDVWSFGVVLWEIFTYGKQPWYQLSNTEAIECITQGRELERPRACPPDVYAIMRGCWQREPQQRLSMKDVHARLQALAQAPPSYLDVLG

Molecule: 800-rhNGF: Dyomics DY-800 Near InfraRed (NIR) dye attached directly to recombinant human NGF (rhNGF)
Retrograde transport to cell bodies (800 NIR labelled cell bodies visualized) [1]: retrogradedly transported

Molecule: rhNGF: recombinant human NGF (nerve growth factor)
Stability in plasma (time stable) [2]: up to 4 days
Maximum Tolerated Dose (MTD) [3]: 1 µg/kg

B1: 800-rhBDNF: NIR dye in the 800 region directly attached to rhBDNF (conjugate, UniProt P23560 19-247, looked up)
Neurotrophic factor BDNF …: APMKEANIRGQGGLAYPGVRTHGTLESVNGPKAGSRGLTSLADTFEHVIEELLDEDQKVRPNEENNKDADLYTSRVMLSSQVPLEPPLLFLLEEYKNYLDAANMSMRVRRHSDPARRGELSVCDSISEWVTAADKKTAVDMSGGTVTVLEKVPVSKGQLKQYFYETKCNPMGYTKEGCRGIDKRHWNSQCRTTQSYVRALTMDSKKRIGWRFIRIDTSCVCTLTIKRGR
modifications: NIR 800 dye
notes: NIR dye in the 800 region directly attached to rhBDNF
Neuronal survival in primary neurons of Retinal Ganglion Cells ([4]; FIG. 3): sustained neuronal survival
Intraneuronal uptake [4, 6]: intraneuronal uptake
Trk binding [4, 6]: Trk binding

Accumulation of fluorescence in the cell bodies with 100× excess unlabelled NGF (TrkA receptors; 10 ng/mL fNGF + 1000 ng/mL unlabelled NGF in distal axon compartments, 24 hours): effectively inhibited
Uptake of fluorescent NGF at distal ends of neurons (TrkA-mediated endocytosis) (TrkA receptors): endocytosed at the distal ends
Uptake of fluorescent NGF at distal ends of neurons (TrkA-mediated endocytosis) (TrkA receptors; listed as fNGF): specific, TrkA receptor-mediated process
B2: 488-mNGF: fluorescent dye Alexa Fluor 488 attached to murine NGF (conjugate, UniProt P01139 122-241, looked up)
Beta-nerve growth factor: SSTHPVFHMGEFSVCDSVSVWVGDKTTATDIKGKEVTVLAEVNINNSVFRQYFFETKCRASNPVESGCRGIDSKHWNSYCTTTHTFVKALTTDEKQAAWRFIRIDTACVCVLSRKATRRG
modifications: Alexa Fluor 488 dye
notes: fluorescent dye Alexa Fluor 488 attached to murine NGF
Survival of neurons [5]: sustained the survival of neurons
